In patent US20250188434A1 (VERRA THERAPEUTICS, published 2025):
Numbering of substitutions follows the chain as printed.

T1: ADAM9 (human or mouse ADAM9, enzyme of the in vitro inhibition assay) (human or mouse, UniProt Q13443 206-697, limits assumed)
T1 sequence (looked up): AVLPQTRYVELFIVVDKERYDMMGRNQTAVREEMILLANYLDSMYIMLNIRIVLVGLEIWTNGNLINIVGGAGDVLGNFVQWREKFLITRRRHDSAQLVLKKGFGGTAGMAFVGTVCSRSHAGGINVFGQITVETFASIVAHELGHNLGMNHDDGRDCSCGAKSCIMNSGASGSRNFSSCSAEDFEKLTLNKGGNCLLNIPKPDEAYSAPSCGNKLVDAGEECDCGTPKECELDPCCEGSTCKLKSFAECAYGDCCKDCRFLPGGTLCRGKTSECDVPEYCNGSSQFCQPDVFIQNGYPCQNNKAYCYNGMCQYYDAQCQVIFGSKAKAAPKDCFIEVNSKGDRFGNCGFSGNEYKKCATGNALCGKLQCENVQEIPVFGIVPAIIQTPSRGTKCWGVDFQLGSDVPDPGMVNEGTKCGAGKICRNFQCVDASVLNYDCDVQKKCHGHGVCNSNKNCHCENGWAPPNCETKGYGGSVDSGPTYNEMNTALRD

T2: Human Meprin beta (human, UniProt Q16820 62-652, limits assumed)
T2 sequence (looked up): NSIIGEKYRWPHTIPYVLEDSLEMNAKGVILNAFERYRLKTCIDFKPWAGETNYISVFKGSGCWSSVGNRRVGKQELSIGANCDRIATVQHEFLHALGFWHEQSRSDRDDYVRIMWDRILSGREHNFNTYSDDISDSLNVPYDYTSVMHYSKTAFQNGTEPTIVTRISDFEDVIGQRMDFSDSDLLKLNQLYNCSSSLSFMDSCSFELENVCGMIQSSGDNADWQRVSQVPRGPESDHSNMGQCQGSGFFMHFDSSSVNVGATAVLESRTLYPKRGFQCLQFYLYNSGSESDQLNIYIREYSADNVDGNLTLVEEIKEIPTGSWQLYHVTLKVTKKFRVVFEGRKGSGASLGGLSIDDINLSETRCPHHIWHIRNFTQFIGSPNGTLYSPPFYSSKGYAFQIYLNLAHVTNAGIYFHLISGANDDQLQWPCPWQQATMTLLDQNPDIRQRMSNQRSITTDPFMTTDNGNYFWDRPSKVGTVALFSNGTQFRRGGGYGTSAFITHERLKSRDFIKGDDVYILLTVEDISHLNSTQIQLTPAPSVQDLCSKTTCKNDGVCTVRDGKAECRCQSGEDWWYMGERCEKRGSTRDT

B1: pegylated SEQ ID NO: 20 (peptide)
chain: ARPGFQQTSHLSSYEIITPWRLTREAREAPRPYSKQVSYVIQAEGKEHIIHLERNKDLLPEDFVVYTYNKEGTLITDHPNIQNHSHYRGYVEGVHNSSIALSDSFGLRGLLHLENASYGIEPLQNSSHFEHIIYRMDDVYKEPLKSGVSNKDIEKETAKDEEEEPPSMTQLLRRGSGSC
modifications: 20 kDa maleimide PEG on the cysteine of the pentapeptide added to the C-terminus
B2: pegylated SEQ ID NO: 23 (peptide)
chain: B1 chain with A26R, R27A
modifications: pegylated at the C-terminus, on the cysteine of the added C-terminal pentapeptide (PEG size not stated for this construct)
B3: pegylated SEQ ID NO: 22 (peptide)
chain: GSCGSARPGFQQTSHLSSYEIITPWRLTRERAEAPRPYSKQVSYVIQAEGKEHIIHLERNKDLLPEDFVVYTYNKEGTLITDHPNIQNHSHYRGYVEGVHNSSIALSDSFGLRGLLHLENASYGIEPLQNSSHFEHIIYRMDDVYKEPLKSGVSNKDIEKETAKDEEEEPPSMTQLLRR
modifications: pegylated at the N-terminus, on the cysteine of the added N-terminal pentapeptide (PEG size not stated for this construct)
B4: wild type human ADAM9 prodomain peptide (SEQ ID NO: 2) (peptide)
chain: ARPGFQQTSHLSSYEIITPWRLTRERREAPRPYSKQVSYVIQAEGKEHIIHLERNKDLLPEDFVVYTYNKEGTLITDHPNIQNHCHYRGYVEGVHNSSIALSDCFGLRGLLHLENASYGIEPLQNSSHFEHIIYRMDDVYKEPLKCGVSNKDIEKETAKDEEEEPPSMTQLLRR
B5: modified ADAM9 prodomain peptide SEQ ID NO: 10 (peptide)
chain: B4 chain with R26A, C85S, C104S, C146S
B6: pegylated SEQ ID NO: 21 (peptide)
chain: B4 chain with R27A, C85S, C104S
modifications: pegylated at cysteine 146 (PEG size not stated for this construct)
B7: modified ADAM9 prodomain peptide SEQ ID NO: 16 (peptide)
chain: B4 chain with R27S, C85S, C104S, C146S
B8: modified ADAM9 prodomain peptide SEQ ID NO: 11 (peptide)
chain: B4 chain with R24A, C85S, C104S, C146S
B9: modified ADAM9 prodomain peptide SEQ ID NO: 12 (peptide)
chain: B4 chain with R27A, C85S, C104S, C146S
B10: modified ADAM9 prodomain peptide SEQ ID NO: 18 (peptide)
chain: B4 chain with R27A, C85S, C104S, D138S, C146S
B11: Chemically modified SEQ ID NO: 2 (wild type ADAM9 prodomain labelled with ALEXA FLUOR 647 maleimide ester) (peptide)
chain: B4 chain
modifications: ALEXA FLUOR 647 brand maleimide ester on its three cysteines (85, 104 and 146 of SEQ ID NO: 2)
B12: modified ADAM9 prodomain peptide SEQ ID NO: 14 (peptide)
chain: B4 chain with R26A, D62A, C85S, C104S, C146S
B13: modified ADAM9 prodomain peptide SEQ ID NO: 19 (peptide)
chain: B4 chain with R27A, C85S, C104S, C146S, E161N, E163N
B14: modified ADAM9 prodomain peptide SEQ ID NO: 13 (peptide)
chain: B4 chain with C85S, C104S, C146S
B15: modified ADAM9 prodomain peptide SEQ ID NO: 17 (peptide)
chain: QTSHLSSYEIITPWRLTRERAEAPRPYSKQVSYVIQAEGKEHIIHLERNKDLLPEDFVVYTYNKEGTLITDHPNIQNHSHYRGYVEGVHNSSIALSDSFGLRGLLHLENASYGIEPLQNSSHFEHIIYRMDDVYKEPLKSGVSNKDIEKETAKDEEEEPPSMTQLLRR
B16: 25-3 (SEQ ID NO: 23), as labelled in Table 5 (peptide)
chain: B1 chain with A26R, R27A
B17: 25-2 (SEQ ID NO: 22), as labelled in Table 5 (peptide)
chain: B3 chain
B18: 25-1 (SEQ ID NO: 21), as labelled in Table 5 (peptide)
chain: B4 chain with R27A, C85S, C104S

Biological target: T1, ADAM9 (human or mouse ADAM9, enzyme of …)
Test: cell-based or functional assay

| Binder | IC50, inhibition of ADAM9 activity on FRET substrate PEPDAB064; prodomain from inclusion bodies | IC50, inhibition of ADAM9 activity on FRET substrate PEPDAB064; prodomain from soluble fraction | IC50, inhibition of ADAM9 activity on FRET substrate PEPDAB064; prodomain refolded from inclusion bodies (aggregating) |
| --- | --- | --- | --- |
| B1 | 0.016 µM |  |  |
| B2 | 0.0399 µM |  |  |
| B3 | 0.06 µM |  |  |
| B4 | 0.02 µM |  |  |
| B5 |  | 0.049 µM | > 0.2 µM |
| B6 | 0.0405 µM |  |  |
| B7 | 0.029 µM |  |  |
| B8 | > 0.2 µM | 0.0138 µM |  |
| B9 | 0.041 µM | 0.039 µM |  |
| B10 | 0.181 µM |  |  |
| B11 | 0.125 µM |  |  |
| B12 | 0.136 µM |  |  |
| B13 | 0.033 µM |  |  |
| B14 | 0.046 µM |  |  |
| B15 | 0.185 µM |  |  |

Biological target: T2, Human Meprin beta
Test: cell-based or functional assay

| Binder | IC50, inhibition of activated Meprin beta on fluorescent substrate PEPDAB022 |
| --- | --- |
| B16 | 5.7 µM |
| B17 | 3.8 µM |
| B4 | 0.2 µM |
| B9 | 7.4 µM |
| B18 | 2.8 µM |

Biological target: T1, ADAM9 (human or mouse ADAM9, enzyme of …)
Test: cell-based or functional assay
Remark: another data set of the same source

| Binder | IC50, inhibition of ADAM9 activity; wild type prodomain assayed 1 week after dialysis, when dimer formation had occurred |
| --- | --- |
| B4 | 0.12 µM |
